In ChEMBL document CHEMBL3526061, “Glucuronidation of edaravone by human liver and kidney microsomes: biphasic kinetics and identification of UGT1A9 as the major UDP-glucuronosyltransferase isoform” (Drug Metab Dispos, 2012):

Key:
[1] = substrate: CC1=NN(c2ccccc2)C(=O)C1; assay: Activity of human recombinant UGT1A6 expressed in insect cells assessed as enzyme mediated glucuronidation by LC-MS/MS method; format: ADME
[2] = substrate: CC1=NN(c2ccccc2)C(=O)C1; assay: Activity of human recombinant UGT1A1 expressed in insect cells assessed as enzyme mediated glucuronidation by LC-MS/MS method; format: ADME
[3] = substrate: CC1=NN(c2ccccc2)C(=O)C1; assay: Activity of human recombinant UGT2B7 expressed in insect cells assessed as enzyme mediated glucuronidation by LC-MS/MS method; format: ADME
[4] = substrate: CC1=NN(c2ccccc2)C(=O)C1; assay: Activity of human recombinant UGT1A7 expressed in insect cells assessed as enzyme mediated glucuronidation by LC-MS/MS method; format: ADME
[5] = substrate: COc1c(C)c2c(c(O)c1C/C=C(\C)CCC(=O)O)C(=O)OC2; assay: Activity of human recombinant UGT1A9 expressed in insect cells assessed as enzyme mediated glucuronidation by LC-MS/MS method; format: ADME
not read = substrate: CC(C)c1cccc(C(C)C)c1O; assay: not read
[6] = substrate: CC1=NN(c2ccccc2)C(=O)C1; assay: Activity of human recombinant UGT2B17 expressed in insect cells assessed as enzyme mediated glucuronidation by LC-MS/MS method; format: ADME

B1: UDP-glucuronosyltransferase 1A6 (Homo sapiens) (protein)
chain: MACLLRSFQRISAGVFFLALWGMVVGDKLLVVPQDGSHWLSMKDIVEVLSDRGHEIVVVVPEVNLLLKESKYYTRKIYPVPYDQEELKNRYQSFGNNHFAERSFLTAPQTEYRNNMIVIGLYFINCQSLLQDRDTLNFFKESKFDALFTDPALPCGVILAEYLGLPSVYLFRGFPCSLEHTFSRSPDPVSYIPRCYTKFSDHMTFSQRVANFLVNLLEPYLFYCLFSKYEELASAVLKRDVDIITLYQKVSVWLLRYDFVLEYPRPVMPNMVFIGGINCKKRKDLSQEFEAYINASGEHGIVVFSLGSMVSEIPEKKAMAIADALGKIPQTVLWRYTGTRPSNLANNTILVKWLPQNDLLGHPMTRAFITHAGSHGVYESICNGVPMVMMPLFGDQMDNAKRMETKGAGVTLNVLEMTSEDLENALKAVINDKSYKENIMRLSSLHKDRPVEPLDLAVFWVEFVMRHKGAPHLRPAAHDLTWYQYHSLDVIGFLLAVVLTVAFITFKCCAYGYRKCLGKKGRVKKAHKSKTH
Question: With B1 as the protein, how does the Km [1] read?
Answer: 778 µM

Question: And the Vmax [1]?
Answer: 1.24e-06 µmol/min/mg

B2: UDP-glucuronosyltransferase 1A1 (Homo sapiens) (protein)
chain: MAVESQGGRPLVLGLLLCVLGPVVSHAGKILLIPVDGSHWLSMLGAIQQLQQRGHEIVVLAPDASLYIRDGAFYTLKTYPVPFQREDVKESFVSLGHNVFENDSFLQRVIKTYKKIKKDSAMLLSGCSHLLHNKELMASLAESSFDVMLTDPFLPCSPIVAQYLSLPTVFFLHALPCSLEFEATQCPNPFSYVPRPLSSHSDHMTFLQRVKNMLIAFSQNFLCDVVYSPYATLASEFLQREVTVQDLLSSASVWLFRSDFVKDYPRPIMPNMVFVGGINCLHQNPLSQEFEAYINASGEHGIVVFSLGSMVSEIPEKKAMAIADALGKIPQTVLWRYTGTRPSNLANNTILVKWLPQNDLLGHPMTRAFITHAGSHGVYESICNGVPMVMMPLFGDQMDNAKRMETKGAGVTLNVLEMTSEDLENALKAVINDKSYKENIMRLSSLHKDRPVEPLDLAVFWVEFVMRHKGAPHLRPAAHDLTWYQYHSLDVIGFLLAVVLTVAFITFKCCAYGYRKCLGKKGRVKKAHKSKTH
Question: Which results are given for B2?
Answer: Km [2]: 285 µM; Vmax [2]: 4.52e-08 µmol/min/mg

B3: UDP-glucuronosyltransferase 2B7 (Homo sapiens) (protein)
chain: MSVKWTSVILLIQLSFCFSSGNCGKVLVWAAEYSHWMNIKTILDELIQRGHEVTVLASSASILFDPNNSSALKIEIYPTSLTKTELENFIMQQIKRWSDLPKDTFWLYFSQVQEIMSIFGDITRKFCKDVVSNKKFMKKVQESRFDVIFADAIFPCSELLAELFNIPFVYSLSFSPGYTFEKHSGGFIFPPSYVPVVMSELTDQMTFMERVKNMIYVLYFDFWFEIFDMKKWDQFYSEVLGRPTTLSETMGKADVWLIRNSWNFQFPYPLLPNVDFVGGLHCKPAKPLPKEMEDFVQSSGENGVVVFSLGSMVSNMTEERANVIASALAQIPQKVLWRFDGNKPDTLGLNTRLYKWIPQNDLLGHPKTRAFITHGGANGIYEAIYHGIPMVGIPLFADQPDNIAHMKARGAAVRVDFNTMSSTDLLNALKRVINDPSYKENVMKLSRIQHDQPVKPLDRAVFWIEFVMRHKGAKHLRVAAHDLTWFQYHSLDVIGFLLVCVATVIFIVTKCCLFCFWKFARKAKKGKND
Question: For B3, which Km [3] is on record?
Answer: 2380 µM

Question: And the Vmax [3]?
Answer: 1.77e-06 µmol/min/mg

B4: UDP-glucuronosyltransferase 1A7 (Homo sapiens) (protein)
chain: MARAGWTGLLPLYVCLLLTCGFAKAGKLLVVPMDGSHWFTMQSVVEKLILRGHEVVVVMPEVSWQLGRSLNCTVKTYSTSYTLEDQDREFMVFADARWTAPLRSAFSLLTSSSNGIFDLFFSNCRSLFNDRKLVEYLKESCFDAVFLDPFDACGLIVAKYFSLPSVVFARGIFCHYLEEGAQCPAPLSYVPRLLLGFSDAMTFKERVWNHIMHLEEHLFCPYFFKNVLEIASEILQTPVTAYDLYSHTSIWLLRTDFVLEYPKPVMPNMIFIGGINCHQGKPVPMEFEAYINASGEHGIVVFSLGSMVSEIPEKKAMAIADALGKIPQTVLWRYTGTRPSNLANNTILVKWLPQNDLLGHPMTRAFITHAGSHGVYESICNGVPMVMMPLFGDQMDNAKRMETKGAGVTLNVLEMTSEDLENALKAVINDKSYKENIMRLSSLHKDRPVEPLDLAVFWVEFVMRHKGAPHLRPAAHDLTWYQYHSLDVIGFLLAVVLTVAFITFKCCAYGYRKCLGKKGRVKKAHKSKTH
Question: What does the source list for B4?
Answer: Km [4]: 432 µM; Vmax [4]: 7.4e-07 µmol/min/mg

B5: UDP-glucuronosyltransferase 1A9 (Homo sapiens) (protein)
chain: MACTGWTSPLPLCVCLLLTCGFAEAGKLLVVPMDGSHWFTMRSVVEKLILRGHEVVVVMPEVSWQLGRSLNCTVKTYSTSYTLEDLDREFKAFAHAQWKAQVRSIYSLLMGSYNDIFDLFFSNCRSLFKDKKLVEYLKESSFDAVFLDPFDNCGLIVAKYFSLPSVVFARGILCHYLEEGAQCPAPLSYVPRILLGFSDAMTFKERVRNHIMHLEEHLLCHRFFKNALEIASEILQTPVTEYDLYSHTSIWLLRTDFVLDYPKPVMPNMIFIGGINCHQGKPLPMEFEAYINASGEHGIVVFSLGSMVSEIPEKKAMAIADALGKIPQTVLWRYTGTRPSNLANNTILVKWLPQNDLLGHPMTRAFITHAGSHGVYESICNGVPMVMMPLFGDQMDNAKRMETKGAGVTLNVLEMTSEDLENALKAVINDKSYKENIMRLSSLHKDRPVEPLDLAVFWVEFVMRHKGAPHLRPAAHDLTWYQYHSLDVIGFLLAVVLTVAFITFKCCAYGYRKCLGKKGRVKKAHKSKTH
Question: Which results are given for B5?
Answer: Km [5]: 160 µM; Km (not read): 41 µM

B6: UDP-glucuronosyltransferase 2B17 (Homo sapiens) (protein)
chain: MSLKWMSVFLLMQLSCYFSSGSCGKVLVWPTEYSHWINMKTILEELVQRGHEVIVLTSSASILVNASKSSAIKLEVYPTSLTKNDLEDFFMKMFDRWTYSISKNTFWSYFSQLQELCWEYSDYNIKLCEDAVLNKKLMRKLQESKFDVLLADAVNPCGELLAELLNIPFLYSLRFSVGYTVEKNGGGFLFPPSYVPVVMSELSDQMIFMERIKNMIYMLYFDFWFQAYDLKKWDQFYSEVLGRPTTLFETMGKAEMWLIRTYWDFEFPRPFLPNVDFVGGLHCKPAKPLPKEMEEFVQSSGENGIVVFSLGSMISNMSEESANMIASALAQIPQKVLWRFDGKKPNTLGSNTRLYKWLPQNDLLGHPKTKAFITHGGTNGIYEAIYHGIPMVGIPLFADQHDNIAHMKAKGAALSVDIRTMSSRDLLNALKSVINDPIYKENIMKLSRIHHDQPVKPLDRAVFWIEFVMRHKGAKHLRVAAHNLTWIQYHSLDVIAFLLACVATMIFMITKCCLFCFRKLAKTGKKKKRD
Question: Which results are given for B6?
Answer: Km [6]: 129 µM; Vmax [6]: 4.29e-07 µmol/min/mg
